Consider two molecules from patent US20210236649A1 (ICONIC THERAPEUTICS, published 2021).

B1: Human Factor VIIa (human plasma FVIIa) (enzyme, UniProt P08709 61-466, looked up)
chain: ANAFLEELRPGSLERECKEEQCSFEEAREIFKDAERTKLFWISYSDGDQCASSPCQNGGSCKDQLQSYICFCLPAFEGRNCETHKDDQLICVNENGGCEQYCSDHTGTKRSCRCHEGYSLLADGVSCTPTVEYPCGKIPILEKRNASKPQGRIVGGKVCPKGECPWQVLLLVNGAQLCGGTLINTIWVVSAAHCFDKIKNWRNLIAVLGEHDLSEHDGDEQSRRVAQVIIPSTYVPGTTNHDIALLRLHQPVVLTDHVVPLCLPERTFSERTLAFVRFSLVSGWGQLLDRGATALELMVLNVPRLMTQDCLQQSRKVGDSPNITEYMFCAGYSDGSKDSCKGDSGGPHATHYRGTWYLTGIVSWGQGCATVGHFGVYTRVSQYIEWLQKLMRSEPRPGVLLRAPFP
notes: also called hFVIIa; Human FVIIa
B2: Lipidated rabbit tissue factor (receptor, UniProt P24055 33-292, looked up)
chain: ADTTGRAYNLTWKSTNFKTILEWEPKSIDHVYTVQISTRLENWKSKCFLTAETECDLTDEVVKDVGQTYMARVLSYPARNGNTTGFPEEPPFRNSPEFTPYLDTNLGQPTIQSFEQVGTKLNVTVQDARTLVRRNGTFLSLRAVFGKDLNYTLYYWRASSTGKKTATTNTNEFLIDVDKGENYCFSVQAVIPSRKRKQRSPESLTECTSREQGRAREMFFIIGAVVVVALLIIVLSVTVYKCRKARAGPSGKESSPLNIA
notes: Amine-coupled as a proteoliposome to flow cell 2 of the Biacore chip; Also used to start thrombin generation in rabbit plasma; also called rTF; rabbit TF

Experiment [1] concerns the target B2. The experiment can be described thus: SPR (Biacore). On the procedure: (§1) The GE procedure for proteoliposome immobilization (amine coupling) protocol was used to coat PS/PC/rTF on flow cell 2, and PS/PC/hTF on flow cell 3. Flow cells were equilibrated with running buffer (15 mM Hepes, 150 mM NaCl, 5 mM CaCl2, 25 mM Arginine, 0.01% Tween 80, pH7.4) at a flow rate of 5 μL/min. Kinetic analyses were performed at 37° C. by flowing consecutively increasing concentrations of each analyte […] in the running buffer (15 mM. HEPES, 150 mM NaCl, 5 mM CaCl2, 25 mM Arginine, 0.01% Tween 80, pH 7.4) over the sensor chip for 5 min followed by a 10 min dissociation period at a flow rate of 30 μL/min in parallel.
(§2) Analyte binding to the lipidated TF was determined by subtracting the RU values noted in the reference flow cell 1 from flow cell 2 and 3. Binding of analytes to the TFs was monitored in real time to obtain on (ka) and off (kd) rates. The equilibrium dissociation constant (KD) was calculated from the observed ka and kd.
(In SPR one partner is held on a chip, and binding of the other changes the refractive index at the surface.)

The target in experiment [2] is B1. The experiment can be described thus: SPR (Biacore 3000), lipidated rabbit TF on chip. The procedure: as §1, §2
(§3) Based on the saturation concentration of the analyte, binding analysis was performed using saturating analyte concentrations of 0-500 nM for rabbit TF and 0-50 nM for human TF. Chi squared (χ²) analysis was carried out between the actual sensorgram and the calculated on- and off-rates to determine the accuracy of the analysis.

Experiment [3] concerns the target B1. The experiment can be described thus: SPR (Biacore 3000), lipidated rabbit TF amine-coupled, analyte 0-500 nM, 37 C. On the procedure: as §1, §2, §3

Consider B1, for which, in experiment [1], the “fold lower affinity than to lipidated hTF” value was about 10 fold.
One may read the Kd as the constant that tells how readily two partners part at equilibrium. The koff is the rate constant with which the complex falls apart. A low value points to slow dissociation. The term kon denotes a measure of how fast the partners come together. Consider B2, for which the Kd in experiment [2] came to 39.5 nM. For the same molecule, in experiment [3], the Ka worked out at 2.5e+07 M⁻¹, binding was characterised by a dissociation constant (Kd) of 40 nM, the off-rate (koff) is 0.0014 s⁻¹ and the on-rate (kon) is 34000 M⁻¹ s⁻¹.
